# Measurements published in article PMC5830916.
# Key:
# 14-3-3 ε = 14-3-3 ε (UniProt P62258); assay: GFP-Trap co-IP, Myc immunoblot; conditions: reference: wild type
# 14-3-3 ζ = 14-3-3 ζ (UniProt P63104); assay: GFP-Trap co-IP, Myc immunoblot; conditions: reference: wild type
Substance,binding against the reference (14-3-3 ε; sites S411),binding against the reference (14-3-3 ζ; sites S411),binding against the reference (14-3-3 ε; sites S395),binding against the reference (14-3-3 ζ; sites S395)
E2F7 (from UniProt Q6S7F2) S411A,lost,lost,,
E2F8 (from UniProt Q58FA4) S395A,,,lost,lost
